The DeepSol protein solubility set

Test: soluble on expression in E. coli; label from the status in PepcDB or PDB records

Row | Sequence | soluble on expression in E. coli
1 | MSAQKPGLHPRNRHQHRYDLAALCQTTPELTSFLIRTPAGEQSVDFANPQAVKALNKALLAHFYAVTHWDIPPGFLCPPVPGRADYIHHLADLLGETTGSIPAQATILDVGVGANCIYPLIGVHEYGWRFTGSEVSDAAMSSAQAIIQANTGLSRAIRLRRQKDPAAIFTGIIHKNEFYDATLCNPPFHDSAAAARAGSERKRRNLGQNKDDALNFGGQQQELWCEGGEVAFIKKMIAESQSFRRQVLWFTTLVSRGENLPPLYRALTEAGAVKVVKKEMAQGQKQSRFIAWTFMDDDQRRRFITRKR | not soluble
2 | MSASFSAPRLRPRQLSAGDLVEESLLDPANDYLRIVRARQPGMDLRQWIAAAGAGLRDSLLRHGGILFRGFAVDGAEGFSQAVQSFSPNMLDYLERAAARQEVAHRVFTSTEFSPDGWIPPHHEMSYSHNWPSYIHFYCQTPPATQGRTPLADERRVSARIPEAIRQRFLRHGVCYVRNYGPEIDLTWQEGFQTDSRAEVEAYCRQTGTQWTWLDDQRLNTRQVRQAMVRHPLSGETLWFNHAHMFHVSNMPPALARALLDEVGEQGLPRNAYYGDGSPIEAEVLDTIRAAYREETRAFAWERGDVLMLDNFISVHGREPYTGERKVLVAMTDLHVHQP | not soluble
3 | MSASVKESLQLQLLEMEMLFSMFPNQGEVKLEDVNALTNIKRYLEGTREALPPKIEFVITLQIEEPKVKIDLQVTMPHSYPYVALQLFGRSSELDRHQQLLLNKGLTSYIGTFDPGELCVCAAIQWLQDNSASYFLNRKLVYEPSTQAKPVKNTFLRMWIYSHHIYQQDLRKKILDVGKRLDVTGFCMTGKPGIICVEGFKEHCEEFWHTIRYPNWKHISCKHAESVETEGNGEDLRLFHSFEELLLEAHGDYGLRNDYHMNLGQFLEFLKKHKSEHVFQILFGIESKSSDSLEHHHHHH | soluble
4 | MSCHTSCIDHTSALIHCADEVFEKPLPHLFEAAVFLMGFTLWGKLEFNQRDGFLDCPHGDRVCGSGMMSKVDILQLTGHFFTNFNGRDYIENIQNLFDNQLASYHIRNQFLIGIQRLGHRKLLIAF | not soluble
5 | MSDAPTVVAYLGPAGTFTEEALYKFADAGVFGDGEIEQLPAKSPQEAVDAVRHGTAQFAVVAIENFVDGPVTPTFDALDQGSNVQIIAEEELDIAFSIMVRPGTSLADVKTLATHPVGYQQVKNWMATTIPDAMYLSASSNGAGAQMVAEGTADAAAAPSRAAELFGLERLVDDVADVRGARTRFVAVQAQAA | not soluble
6 | MSDDHHDDEHFHTGDSGAAATFPKQCSALRKNEHVMIKGRPCKIVEMSTSKTGKHGHAKVHMVAIDIFTSKKLEDICPSTHNMDVPVVKRREYLLMAIDDGYCSLMDPESCEQKDDLKLPDTELGQQIRDAYEKDEGSVLVQVVSAIGEEAILGWKVSTKE | not soluble
7 | MSDEAIHDIFVIGGGINGCGIARDAVGRGYSVALAEMNDFASGTSSAATKLIHGGLRYLEHYEFRLVREALMEREVLWAMAPHIIWPMRFVLPFQKGGVRPAWLVRLGLFLYDHLGGRKLLPATRSLDLRRDPAGKPLKPIFARAFEYSDGWVDDARLVVLNARDAADRGAVILNRTQVVSARREGAFWRVETKNAAGESKTYRARMLVNAAGPWVDKVLAATFGKNNVHNVRLVQGSHIIVRKKFADPRAYFFQNPDGRIIFAIPYEQDFTLIGTTDRDYTADPRAVKISDEEISYLCNAASEYFAEPVKPADIVWTYSGVRPLFDDGASKAQEATRDYVLKTEGAEGEAPLLNIFGGKLTTYRRLAEHALEKIGDALGEKGTPWTAGSHLPGGNFGAEAYAEEVKALRSRYPFLDRRHAERLVRCYGTDAVAIIGAAADTTALGRHFGGTLYEAEVRWLMAREWALTAEDILWRRTKQGLFLTPEEVLGLTDYIDDIAGGRLKAILEHHHHHH | soluble
8 | MSDGFSVDPAELEGFAGVAEGHAGTAGQIKGLVDRADVGDKSWGVVGLFVKSTYTGMLGDLKELFGDLEEGLRGVGERFRATAEDYRGPEEAIQRAFDGIDTGSGGR | not soluble
9 | MSDHEEESHGASPTSPASSGASSPLAPISPRSEGNAPESPSGDVQDIYKDESFEAPASPARDSSAPASPSAASPAGSRSPSPSPVKTKSKVMIDSDEDSDAEESANKRALIDSDASDAEGKKRRVMLDSDDSDHEGTSKKEPTTKNLFGDDSDDDDEDRPKKTNDLDEFVEGRDEEESQETSKPAYDSDDDDGPVDRHGRHFEWDFDKMLAEKKAERKKKTRRGGKDGGIDIINDDDGTVSRLVERMKHAAKSDRNANIERKPAFQKIKMLPEVKAIMLRAGIVEVLIENGFMSALSEWLAPLPDKCLPALDIRITVLKLLHNPRFWKLDRSTLKQSGLGKAVMMLYKHPNETKENKGIANKLIGEWARPIYHLDTDYSTVSRQEREERDYSRMPEKRKKKINSRDEEEPNDDDQPKRPRIRDADEMGPTKSDDLKPGDKGYIPRARVPKPSTKDYVIRPEWRVTGAFKGEKKSTGNNRYDQTFRDFQERTKKSKANRIVKVSLEGRNMGI | soluble
10 | MSDISEKFWDASIEELKKGYVFDEEKEEYICLACGETFIKGVIYQDNQILYEAEKFVQLHIQNEHTSMFDYLLNMDKKFTGLTDLQKKMVQFFHMGLNDKEIVKEMDGGSTSTIRNHRFTLREKMKQAKVFLALMELSEEKSKVQTKFVPIHRTATMVDDRYNITEEENDEVLKAHFTEGLDGPLSKFPKKQKRKLIILRHLVKKFDSNKKYTEKEVNTVIENVYPDFVTLRRYLIEYGFLDRTADGSQYWVKL | not soluble
11 | MSDNKESKKISIEIDGKDYQALPNQSIIEVADANGIYIPRFCYHKKLSVAANCRMCLVDVEGARRASPACATPVMDGMKVKTRSEEALQMQKDVMEFLLINHPLDCPICDQGGECELQDIAMGYGNTTSEYLESKRTVEDPELGPLVATDMTRCILCTRCVRFGEEIAGVKELGVMGRGDHSAISTYISGEMVDSEISANIIDLCPVGALTSKPFRFKARSWELKQFPTLSAGDALATEINAHIYQNKLVRVVPRENDITGTWIADRDRFEYTGLYSQDRIQQPMIKKTGDWVDLSWEEALDFVKVAIQKTIEKDGADAISAIVSETATSEEMYLTKKLLAAVGSVNIDARVRQYADIPGISAGKGLSCSLEDIRESDFILVFGSNIRKEYPLVNIAIKDAVEKNAAKAVAWNVCDYNFNYDIKQVRLAADNIQYIALSLLKAIFVRANLPYGDLDEILRKVDPAAEVRDVADRIVAAKAPKIIIGQDIVNTSGFETVFSILDVLEKVTSVRGGVLATNVNSVAADRIFSSSKSKFSTYKCLNGRTNTKLLLTVHTELAKDSLYGEQKLRNALENIDIVVSFTAFADKFTKDTADIILPIATHYETSGSFVDLFGNRKEFKQVVKPYAGNKELWRVLRVLGNLLELEGFDYNSIAEVTNDAYATRARVGVNHVTQILNANLDYQKEVAFVASNSMYSTTSLLRRAEPLQKTTDAKRFAGVRISQELADEIGLKGQSGVIKIYNIDNEINPEVVVDPSLQAKNIMLPRALFKDFLSSDNISIKLVEEER | not soluble
12 | MSDNLKIGLQYLTPKHALTRLAGKLASAKMGWLTTAVIKWFIKQYNVNMDEAKNPDPEAYSTFNNFFVRELEDGARPINEDDSVISHPADACVSQFGPIMDGKLVQAKGHVYSAQELLGGDEALAAEFMGGEFATLYLSPSDYHRVHMPCDATLRKMIYVPGDLFSVNPLTAENVPNLFARNERVVCIFDTEFGPMAQILVGATIVGSIETTWAETVTPPTGPAVKTWHYPLSGDDMICFKKGEEMGRFKLGSTVINLFAPNSIKFDDSMENGTPTRMGTPFAHIVKLEHHHHHH | soluble
13 | MSDPADVFDLVGLTEYEATALEQLLSLGRTTAPNLAEASGIPKARVYGVLESLSDRGFIKLIPGRPKEYQPKSPSDILDRAVENRKQSYESFAADMDSYRDAFLAEYEPRFERANEDISPTAELFHVVDVGEPSERETRRLYDDADETLRVITNSFAYLDNVERALAETLDRGVEVNVLFLHPDALPPEKAAVQADIVDRLTAEYPAIDLRFSTEKLPWRGTLVDPSMDYDSGEAILLVEEPDVPNHMRQAAITDNGSFVAGMKRYFDLVWEYESVQRSN | not soluble
14 | MSDPAGGKALRRDAAENRQRLLDAAATVFSARGLDVGVDEIARVAGVGIGTLYRRFPTKDALISELVRQVLEDFLTLAHEALSAPEGEGLEQVLYGSGAILASNRGCLSRMWNDDQTTVLRNEYRRILFELLAGAKQHGRIREDATEADLDLIFWSLRGVVATTRGVTDTGWRRILAVMIAGLRPGAERLDAAPLSAQDVAQIMENLWPR | not soluble
15 | MSDVNAPAGLAALEARLQQDLAWLDLPAKPWVKPRTNAGQAVLDVAIIGGGMAGLALAAELRHLGVAAVIFDQSPAGFEGPWATTARMETLRSPKQLTGPALGLPALTFRAWYEAQFGADGWAALDKIPRLQWAEYLRWYRKALALDVRNEHRVSRVAPRTDGLVELDIMTPGQTRFMLARHVVLATGRDGLGGPWVPDFARQLPDHLWTHSAAGLQDDWFEGRRVAVIGGGASAMDSAATALEAGAQRVDLLIRRAELPRVNKGKGVGNPGMVHGYWRLPDIWKWRIRHYLNRQQVPPPRGSTLRVSRSGRARFLLDNPVLAVEANPAGGVWLQTSKARVEADFVVFATGFRTDFELRPEFAPFSSHIRVWQDRFEAPEGEADSELAVLPDLGNCFEFQEKTPGACPGLNHIHCFSYPAALSYGAVSGDIPAISEGSKRLAHALIGLLFNEDIALHFESMRSYAEPELLGDEWVASEPGTEELRPLEHHHHHH | not soluble
16 | MSEAWITLATNDNYAQGALVLVHSLRTAGTTRKIHCLISNEVSAPVRKQLEEHFDDVSIVDVFNSNDSDNLRLIERPDLGVTFTKLHCWRLTQYTKCVFLDADTLVLRNADELFTRPDFSAASDIGWPDSFNSGVFVYVPNNETYRQLVDFAVTHGSYDGGDQGLLNDFFSNWRDLPSEHRLPFIYNMTAGAFYTYAAAYKRYGANTKIVHFIGSVKPWHGSAAVHTGEHFQQWQKIYHAHVNHTSRTNEHAAVFPSHHHTPEHRSHSADHPKIERKDSIVREIGNFVMHVVQSVNILPSYDTDANTSDSHRNNEPHKHDQQREEHHELPHNKFQTPHEESQDIVGSTDCFGSQMPKYNADSETDREVEQITNNTPCPAFVPFERREEYQAASPSTEERRAAWEAGQPDYLGRDAFVHIQEALNRALNE | not soluble
17 | MSEFEGWIKWLEPVFLLWKPEDPGYERPAYRDWTKEEDEPKYSPEKELALLDKQILASDGFDIDFTHFRCVFNYHLAYLDSHEFVDEPETTRDLLERLSRKALDDYNQESVVKANFHFCCAIMFLITFEVVDPYDNLIKLFQTRVRHAEDIVTEYVFCRPKPNQGVECIGVKNNDGKDVQTNVKEQEIPCMYGWFLRVITITFTLQIGVGASICHKE | soluble
18 | MSEGSKQNKKSTDAFSKYMRKLFGIQEITESQREYIEKLERELESAKGTLSTREEKEMIRGLVKFGNIMVKQIMCPRMDMAAVDIALNYEQLQEYISTCGFSRIPVYKESADKIEGVLNIKDLFPFYNKEKDFNWQQLIRTVEFIPETKLIEELLREFQLKHLHMAIVVDEYGGTAGLITMEDVIEEIVGDIHDEYDDDEKPYAQLSDTSYLFEGKISLVDFYKAIELDKDIFDEVKGESETLGGLLLNINSDLPRLGDEIIYEGYVFKIDAVNSKRILRVKVTVPENSENEK | soluble
